According to the PETadex activity labels (doi:10.1021/acsomega.4c04843):

Key:
pNPB = test: Proxy for plastic degradation [p-nitrophenol (pNP) release]; details: pH 7.4
PET = test: Proxy for plastic degradation [Released monomer concentration (HPLC/LC-MS) (TPA)]; details: pH 8

Protein	Proxy for plastic degradation (pNPB) [U/mL]	Proxy for plastic degradation (PET) [mM/mg]
unnamed (protein) MLHYKTYTISDDHPWVIFIHGAGGSLSHWYRQLRPFRKKYNVLLVDLRGHGGSYDAEQSLKQPLNAYTFDVVAKDVIEVMDHLGIEKGHMVGLSLGTIVIQAMFEHYPDRIASVVLGGAIVKFNVRSTMLIRLGSLVQNFVPYMWLYKLFAWILLPKKRHKKSRMMFVRDAANLCQREFIRWFKMTENINPLLNQFTSIQTNVPILYIMGDEDYMFLEAVERTAKHQPTANVEIVADSGHVVNVDQPDQFNALSMNFIDDQIQARSLQMS	4	
unnamed (protein) MRKETAWFVGGAAIAAATAAGASVWSQYGSLVRWQEPELPIQPTTRRRHTYTYKIVHDRPLQFDLYLPPGEGPFPVAVYAHGGAFVRGNRSMVTLFHPLLDHFLGKGIAVVSIDYRLFEDGVYFPDNIFDVSDALCYLKQHESLLTLDTSQLLVWGDSAGAALMLATALDRYRQFAGDLGDDLPTIKGVIALYPPTNFLLFKFIQTWLAHLKFYEGSREEWRELMVKCSPVSHLYADAPPILLLHGKKDPIVPFGQALHFVEHASDVGANVQLISFPNGTHSLASFLQSDNPIKEEQLMARINRFIEECLG	25	
unnamed (protein) MFRFHIVSALLTLFIAVPSQAHDVGQREIKISGAEPGRNLEVSVWYPAAIDGKATLIGDNIIFKGAPAVIDATPEKGSFPLLVMSHGSGGRAQGMAWLATELVKAGIIVAAPNHPGTTSGDSTPQDTPKIWQRTGDLSAVIDTMTTDPAWSGIIDKNKISVLGWSLGGAAAMEIAGARANLEAYARYCDTYGKWDCAWYAGGIGYRDDKQIKVDKVDLRSVDKSRFEQSNLDRRIASAIMIDPGLAQAYDAQSLASISIPMSFINLGEVETIPTGVVADKLASITPQGTYVTVAGATHFSFLPECKKGAADRLKSAGEVDPICSDDARRPRADIHADITKLVLKALQSMPKT	5	
unnamed (protein) MFRFHIVSALLTLFIAVPSQAHDVGQREIKISGAEPGRNLEVSVWYPAAIDGKATLIGDNIIFKGAPAVIDATPEKGSFPLLVMSHGSGGRAQGMAWLATELVKAGIIVAAPNHPGTTSGDSTPQDTPKIWQRTGDLSAVIDTMTTDPAWSGIIDKNKISVLGFSLGGAAAMEIAGARANLEAYARYCDTYGKWDCAWYAGGIGYRDDKQIKVDKVDLRSVDKSRFEQSNLDRRIASAIMIDPGLAQAYDAQSLASISIPMSFINLGEVETIPTGVVADKLASITPQGTYVTVAGATHISFLPECKKGAADRLKSAGEVDPICSDDARRPRADIHADITKLVLKALQSMPKT	75	
unnamed (protein) MFRFHIVSALLTLFIAVPSQAHDVGQREIKISGAEPGRNLEVSVWYPAAIDGKATLIGDNIIFKGAPAVIDATPEKGSFPLLVMSHGSGGRAQGMAWLATELVKAGIIVAAPNHPGTTSGDSTPQDTPKIWQRTGDLSAVIDTMTTDPAWSGIIDKNKISVLGFSLGGAAAMEIAGARANLEAYARYCDTYGKWDCAWYAGGIGYRDDKQIKVDKVDLRSVDKSRFEQSNLDRRIASAIMIDPGLAQAYDAQSLASISIPMSFINLGEVETIPTGVVADKLASITPQGTYVTVAGATHWSFLPECKKGAADRLKSAGEVDPICSDDARRPRADIHADITKLVLKALQSMPKT	110	
unnamed (protein) MFRFHIVSALLTLFIAVPSQAHDVGQREIKISGAEPGRNLEVSVWYPAAIDGKATLIGDNIIFKGAPAVIDATPEKGSFPLLVMSHGSGGRAQGMAWLATELVKAGIIVAAPNHPGTTSGDSTPQDTPKIWQRTGDLSAVIDTMTTDPAWSGIIDKNKISVLGFSLGGAAAMEIAGARANLEAYARYCDTYGKWDCAWYAGGIGYRDDKQIKVDKVDLRSVDKSRFEQSNLDRRIASAIMIDPGLAQAYDAQSLASISIPMSFINLGEVETIPTGVVADKLASITPQGTYVTVAGATAFSFLPECKKGAADRLKSAGEVDPICSDDARRPRADIHADITKLVLKALQSMPKT	15	
unnamed (protein) MFRFHIVSALLTLFIAVPSQAHDVGQREIKISGAEPGRNLEVSVWYPAAIDGKATLIGDNIIFKGAPAVIDATPEKGSFPLLVMSHGSGGRAQGMAWLATELVKAGIIVAAPNHPGTTSGDSTPQDTPKIWQRTGDLSAVIDTMTTDPAWSGIIDKNKISVLGHSLGGAAAMEIAGARANLEAYARYCDTYGKWDCAWYAGGIGYRDDKQIKVDKVDLRSVDKSRFEQSNLDRRIASAIMIDPGLAQAYDAQSLASISIPMSFINLGEVETIPTGVVADKLASITPQGTYVTVAGATHFSFLPECKKGAADRLKSAGEVDPICSDDARRPRADIHADITKLVLKALQSMPKT	15	
unnamed (protein) MFRFHIVSALLTLFIAVPSQAHDVGQREIKISGAEPGRNLEVSVWYPAAIDGKATLIGDNIIFKGAPAVIDATPEKGSFPLLVMSHGSGGRAQGMAWLATELVKAGIIVAAPNHPGTTSGDSTPQDTPKIWQRTGDLSAVIDTMTTDPAWSGIIDKNKISVLGFSLGGAAAMEIAGARANLEAYARYCDTYGKWDCAWYAGGIGYRDDKQIKVDKVDLRSVDKSRFEQSNLDRRIASAIMIDPGLAQAYDAQSLASISIPMSFINLGEVETIPTGVVADKLASITPQGTYVTVDGATHFSFLPECKKGAADRLKSAGEVDPICSDDARRPRADIHADITKLVLKALQSMPKT	100	1
unnamed (protein) MFRFHIVSALLTLFIAVPSQAHDVGQREIKISGAEPGRNLEVSVWYPAAIDGKATLIGDNIIFKGAPAVIDATPEKGSFPLLVMSHGSGGRAQGMAWLATELVKAGIIVAAPNHPGTTSGDSTPQDTPKIWQRTGDLSAVIDTMTTDPAWSGIIDKNKISVLGFSLGGAAAMEIAGARANLEAYARYCDTYGKWDCAWYAGGIGYRDDKQIKVDKVDLRSVDKSRFEQSNLDRRIASAIMIAPGLAQAYDAQSLASISIPMSFINLGEVETIPTGVVADKLASITPQGTYVTVAGATHFSFLPECKKGAADRLKSAGEVDPICSDDARRPRADIHADITKLVLKALQSMPKT	20	
unnamed (protein) MFRFHIVSALLTLFIAVPSQAHDVGQREIKISGAEPGRNLEVSVWYPAAIDGKATLIGDNIIFKGAPAVIDATPEKGSFPLLVMSHGSGGRAQGMAWLATELVKAGIIVAAPNHPGTTSGDSTPQDTPKIWQRTGDLSAVIDTMTTDPAWSGIIDKNKISVLGFSLGGAAAMEIAGARANLEAYARYADTYGKWDCAWYAGGIGYRDDKQIKVDKVDLRSVDKSRFEQSNLDRRIASAIMIDPGLAQAYDAQSLASISIPMSFINLGEVETIPTGVVADKLASITPQGTYVTVAGATHFSFLPECKKGAADRLKSAGEVDPICSDDARRPRADIHADITKLVLKALQSMPKT	10	
unnamed (protein) MFRFHIVSALLTLFIAVPSQAHDVGQREIKISGAEPGRNLEVSVWYPAAIDGKATLIGDNIIFKGAPAVIDATPEKGSFPLLVMSHGSGGRAQGMAWLATELVKAGIIVAAPNHPGTTSGDSTPQDTPKIWQRTGDLSAVIDTMTTDPAWSGIIDKNKISVLGFSMGGAAAMEIAGARANLEAYARYCDTYGKWDCAWYAGGIGYRDDKQIKVDKVDLRSVDKSRFEQSNLDRRIASAIMIDPGLAQAYDAQSLASISIPMSFINLGEVETIPTGVVADKLASITPQGTYVTVAGATHFSFLPECKKGAADRLKSAGEVDPICSDDARRPRADIHADITKLVLKALQSMPKT	225	
unnamed (protein) MFRFHIVSALLTLFIAVPSQAHDVGQREIKISGAEPGRNLEVSVWYPAAIDGKATLIGDNIIFKGAPAVIDATPEKGSFPLLVMSHGSGGRAQGMAWLATELVKAGIIVAAPNHPGTTSGDSTPQDTPKIWQRTGDLSAVIDTMTTDPAWSGIIDKNKISVLGFALGGAAAMEIAGARANLEAYARYCDTYGKWDCAWYAGGIGYRDDKQIKVDKVDLRSVDKSRFEQSNLDRRIASAIMIDPGLAQAYDAQSLASISIPMSFINLGEVETIPTGVVADKLASITPQGTYVTVAGATHFSFLPECKKGAADRLKSAGEVDPICSDDARRPRADIHADITKLVLKALQSMPKT	15	
unnamed (protein) MVPTTVDFDTLCPEPIFQDRWVATPRGRVFTRTWETSHLRSDVPIVLLHDSLGCVDLWRSFPAALCAATQRRVIAYDRLGFGRSDACLTPPLLSFIDDEPSTSFAALQSAFQLTHFIALGHSVGGCMAVHCAGQYVEQCQGLITIAAQAVNEPRTQQGIEEARAAFQMPEQFAKLEKYHGNKARWVLNGWIDTWLHPAFEHWSLTPALQHVHCPTLVLHGENDEYGSHRQPEGIARHTRGPAHTEILPGVGHVPHREVEAVVVHYVSEFIERLTP	30	
unnamed (protein) MPPFRSSRWLSGGHVQTLYSPLWRASPQLQRRRERMTLQDGDFIDLDWYGPEGEATNCVLLLHGLTGSSASLYILGQQQALAARGWQSAAVNWRGCSGEPNHRARGYHSGVSEDLADVVKQLTLRYPHKLFAAIGYSLGGNVLLKYLGEKGSNTPLKAAVAVSVPFRLDHCAERINKGFSRVYQARFLRGLRRYVEHKRQAFLRQGRRGELARLAALETLKGMKTFWDFDGRVTAPLHGFESADDYYRRCSSAFFVEQIRIPTLIVHSLDDPFIYPQSVPKAEVLPSCVTLELHASGGHVGFIEGPPWRPRYYLEHRLPNWLQSQLCSQGKTHNTSALLSN	3	
